Reference: article PMC6097307, “Development and characterization of an HPV18 detection kit using two novel HPV18 type-specific monoclonal antibodies” (Diagnostic Pathology, 2018)

Tests used:
[1] = molecular target: T1, HPV11 L1 virus-like particle (Human papillomavirus type 11, isolate …, UniProt P04012); assay: ELISA; indirect ELISA; native L1-VLPs of nine HPV types coated at 200 ng/well overnight at 4 °C; mAb 0.3 μg/ml, 1 h, room temperature; HRP goat anti-mouse IgG; details: both partners purified
T1 construct: major capsid protein L1 of human papillomavirus type 11, assembled into virus-like particles; Used native and denatured; also called HPV11 L1-VLP

[2] = molecular target: T2, HPV18 L1 virus-like particle (Human papillomavirus type 18, isolate …, UniProt P06794); assay: SPR; BIACORE3000; L1-VLPs coupled to the chip (40 μg/ml, acetate pH 5.5, 4000 RU); antibodies at seven concentrations 0.3125 to 20 nM in PBS; binding 60 s, dissociation 500 s; details: both partners purified
T2 construct: major capsid protein L1 of human papillomavirus type 18, assembled into virus-like particles; The background says that 72 L1 pentamers make up the capsid; Used native, and denatured (0.2 M sodium carbonate pH 10.6, 10 mM DTT, boiled) in separate assays; also called HPV18 L1-VLP; HPV18 L1-VLPs

[3] = molecular target: T3, HPV33 L1 virus-like particle (Human papillomavirus type 33, isolate …, UniProt P06416); assay: ELISA; indirect ELISA as a2 but L1-VLPs denatured (0.2 M sodium carbonate pH 10.6, 10 mM DTT, 30 min, boiled 5 min) before coating; mAb 0.3 μg/ml; details: both partners purified
T3 construct: major capsid protein L1 of human papillomavirus type 33, assembled into virus-like particles; Used native and denatured; also called HPV33 L1-VLP

[4] = molecular target: T4, HPV58 L1 virus-like particle (Human papillomavirus type 58, isolate …, UniProt P26535); assay: as above; details: both partners purified
T4 construct: major capsid protein L1 of human papillomavirus type 58, assembled into virus-like particles; Used native and denatured; also called HPV58 L1-VLP

[5] = molecular target: T5, HPV31 L1 virus-like particle (Human papillomavirus type 31, isolate …, UniProt P17388); assay: as above; details: both partners purified
T5 construct: major capsid protein L1 of human papillomavirus type 31, assembled into virus-like particles; Used native and denatured; also called HPV31 L1-VLP; HPV31VLP

[6] = molecular target: T6, HPV16 L1 virus-like particle (Human papillomavirus type 16, isolate …, UniProt P03101); assay: as above; details: both partners purified
T6 construct: major capsid protein L1 of human papillomavirus type 16, assembled into virus-like particles; Used native and denatured; also called HPV16 L1-VLP

[7] = molecular target: T7, HPV45 L1 virus-like particle (Human papillomavirus type 45, isolate …, UniProt P36741); assay: as above; details: both partners purified
T7 construct: major capsid protein L1 of human papillomavirus type 45, assembled into virus-like particles; Used native and denatured; also called HPV45 L1-VLP

[8] = molecular target: T2, HPV18 L1 virus-like particle; assay: cell-based or functional assay
[9] = molecular target: T3, HPV33 L1 virus-like particle; assay: ELISA; indirect ELISA; native L1-VLPs of nine HPV types coated at 200 ng/well overnight at 4 °C; mAb 0.3 μg/ml, 1 h, room temperature; HRP goat anti-mouse IgG; details: both partners purified
[10] = molecular target: T4, HPV58 L1 virus-like particle; assay: as above; details: both partners purified
[11] = molecular target: T5, HPV31 L1 virus-like particle; assay: as above; details: both partners purified
[12] = molecular target: T6, HPV16 L1 virus-like particle; assay: as above; details: both partners purified
[13] = molecular target: T7, HPV45 L1 virus-like particle; assay: as above; details: both partners purified

T2 sequence (P06794 whole entry): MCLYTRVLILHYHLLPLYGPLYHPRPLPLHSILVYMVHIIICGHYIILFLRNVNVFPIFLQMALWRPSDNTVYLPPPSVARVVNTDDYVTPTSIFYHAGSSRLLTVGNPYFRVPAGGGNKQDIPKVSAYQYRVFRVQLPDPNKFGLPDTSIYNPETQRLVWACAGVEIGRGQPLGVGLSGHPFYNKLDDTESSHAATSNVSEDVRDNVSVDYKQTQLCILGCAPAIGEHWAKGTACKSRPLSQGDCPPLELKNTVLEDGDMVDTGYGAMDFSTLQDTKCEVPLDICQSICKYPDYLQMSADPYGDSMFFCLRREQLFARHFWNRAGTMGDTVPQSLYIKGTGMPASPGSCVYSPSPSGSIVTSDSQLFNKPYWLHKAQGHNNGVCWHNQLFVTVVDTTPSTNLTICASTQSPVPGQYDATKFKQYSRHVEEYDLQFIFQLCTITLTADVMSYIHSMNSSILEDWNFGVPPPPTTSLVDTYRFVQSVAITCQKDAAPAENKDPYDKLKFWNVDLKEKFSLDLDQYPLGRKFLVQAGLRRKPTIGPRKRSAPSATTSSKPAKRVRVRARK
T3 sequence (P06416 whole entry): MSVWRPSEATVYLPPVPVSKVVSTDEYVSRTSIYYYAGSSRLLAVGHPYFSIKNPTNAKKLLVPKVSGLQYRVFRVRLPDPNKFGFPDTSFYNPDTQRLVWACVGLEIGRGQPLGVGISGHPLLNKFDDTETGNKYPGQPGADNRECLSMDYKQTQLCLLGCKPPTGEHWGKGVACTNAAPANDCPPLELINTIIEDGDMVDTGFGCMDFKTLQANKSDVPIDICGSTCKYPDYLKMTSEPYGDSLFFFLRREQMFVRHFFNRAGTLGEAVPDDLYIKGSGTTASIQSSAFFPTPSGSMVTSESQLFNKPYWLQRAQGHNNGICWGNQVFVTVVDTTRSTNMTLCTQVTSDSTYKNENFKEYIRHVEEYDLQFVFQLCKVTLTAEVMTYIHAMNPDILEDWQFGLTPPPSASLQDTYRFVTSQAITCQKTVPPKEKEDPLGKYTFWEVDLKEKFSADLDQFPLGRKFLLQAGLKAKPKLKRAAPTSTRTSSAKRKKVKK
T7 sequence (P36741 whole entry): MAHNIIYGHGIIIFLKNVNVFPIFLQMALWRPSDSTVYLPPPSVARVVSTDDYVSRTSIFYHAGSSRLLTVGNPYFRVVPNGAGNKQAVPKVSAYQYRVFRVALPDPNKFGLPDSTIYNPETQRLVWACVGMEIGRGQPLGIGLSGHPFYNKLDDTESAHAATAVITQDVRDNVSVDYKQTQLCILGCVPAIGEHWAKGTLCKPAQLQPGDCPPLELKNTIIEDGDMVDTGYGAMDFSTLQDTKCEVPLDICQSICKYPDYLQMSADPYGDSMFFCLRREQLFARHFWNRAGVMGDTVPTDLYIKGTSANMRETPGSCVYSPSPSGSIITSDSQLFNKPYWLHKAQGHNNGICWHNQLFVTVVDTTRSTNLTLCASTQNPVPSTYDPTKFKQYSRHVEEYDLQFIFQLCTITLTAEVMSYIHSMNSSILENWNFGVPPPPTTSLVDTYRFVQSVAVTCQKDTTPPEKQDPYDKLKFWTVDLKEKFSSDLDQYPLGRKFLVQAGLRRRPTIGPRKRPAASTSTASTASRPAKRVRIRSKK
T4 sequence (P26535 whole entry): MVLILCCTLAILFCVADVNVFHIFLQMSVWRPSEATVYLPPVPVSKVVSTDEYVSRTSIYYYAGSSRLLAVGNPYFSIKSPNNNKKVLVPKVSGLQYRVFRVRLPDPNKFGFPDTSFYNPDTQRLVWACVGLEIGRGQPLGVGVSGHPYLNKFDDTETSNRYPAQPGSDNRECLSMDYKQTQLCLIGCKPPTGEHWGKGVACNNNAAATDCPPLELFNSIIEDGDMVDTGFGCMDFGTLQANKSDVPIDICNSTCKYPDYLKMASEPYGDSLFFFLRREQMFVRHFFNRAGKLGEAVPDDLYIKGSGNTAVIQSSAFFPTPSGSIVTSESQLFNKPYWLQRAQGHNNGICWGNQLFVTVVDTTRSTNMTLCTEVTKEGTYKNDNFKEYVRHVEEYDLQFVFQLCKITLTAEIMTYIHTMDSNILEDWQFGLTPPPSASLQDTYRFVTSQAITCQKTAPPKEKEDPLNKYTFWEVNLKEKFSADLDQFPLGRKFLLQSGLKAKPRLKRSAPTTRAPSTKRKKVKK
T1 sequence (P04012 whole entry): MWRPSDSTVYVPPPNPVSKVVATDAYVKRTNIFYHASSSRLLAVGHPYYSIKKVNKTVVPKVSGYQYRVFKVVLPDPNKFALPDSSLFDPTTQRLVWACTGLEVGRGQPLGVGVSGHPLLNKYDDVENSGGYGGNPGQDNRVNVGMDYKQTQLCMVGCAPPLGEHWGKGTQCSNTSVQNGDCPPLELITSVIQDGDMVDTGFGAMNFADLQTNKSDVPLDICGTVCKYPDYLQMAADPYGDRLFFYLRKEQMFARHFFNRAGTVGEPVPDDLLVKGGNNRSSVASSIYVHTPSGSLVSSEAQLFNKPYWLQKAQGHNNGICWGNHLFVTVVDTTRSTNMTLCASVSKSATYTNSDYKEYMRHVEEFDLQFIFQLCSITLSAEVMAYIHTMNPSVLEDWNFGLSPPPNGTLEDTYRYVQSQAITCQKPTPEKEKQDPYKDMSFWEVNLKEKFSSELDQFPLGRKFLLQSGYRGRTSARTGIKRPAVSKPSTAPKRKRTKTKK
T5 sequence (P17388 whole entry): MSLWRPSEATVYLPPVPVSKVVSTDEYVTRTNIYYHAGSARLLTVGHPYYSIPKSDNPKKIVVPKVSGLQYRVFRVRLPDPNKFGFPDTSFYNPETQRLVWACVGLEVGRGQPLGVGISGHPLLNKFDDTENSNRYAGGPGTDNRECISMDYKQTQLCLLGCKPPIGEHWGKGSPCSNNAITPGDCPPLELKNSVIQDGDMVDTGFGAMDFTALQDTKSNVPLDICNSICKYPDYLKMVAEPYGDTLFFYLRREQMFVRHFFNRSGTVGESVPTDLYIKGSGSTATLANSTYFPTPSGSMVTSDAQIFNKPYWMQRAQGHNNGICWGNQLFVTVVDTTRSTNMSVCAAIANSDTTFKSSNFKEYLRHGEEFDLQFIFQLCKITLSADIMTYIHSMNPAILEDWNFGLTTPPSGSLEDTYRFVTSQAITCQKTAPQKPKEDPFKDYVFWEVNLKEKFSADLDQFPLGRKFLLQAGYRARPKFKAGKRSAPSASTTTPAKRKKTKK
T6 sequence (P03101 whole entry): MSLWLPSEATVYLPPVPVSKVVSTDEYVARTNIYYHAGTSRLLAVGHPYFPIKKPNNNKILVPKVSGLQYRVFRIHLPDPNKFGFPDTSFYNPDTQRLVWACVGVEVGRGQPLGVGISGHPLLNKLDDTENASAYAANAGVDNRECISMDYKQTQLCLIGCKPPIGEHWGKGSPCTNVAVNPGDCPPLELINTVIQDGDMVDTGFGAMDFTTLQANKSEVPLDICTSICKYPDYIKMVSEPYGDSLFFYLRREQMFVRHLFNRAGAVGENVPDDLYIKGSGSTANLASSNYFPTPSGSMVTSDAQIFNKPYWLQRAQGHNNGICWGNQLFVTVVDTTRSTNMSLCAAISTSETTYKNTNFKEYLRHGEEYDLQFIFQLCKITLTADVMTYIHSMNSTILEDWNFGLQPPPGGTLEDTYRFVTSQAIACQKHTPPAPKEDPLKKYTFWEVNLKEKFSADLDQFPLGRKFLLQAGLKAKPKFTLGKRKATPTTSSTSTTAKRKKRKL

Row | Binder | binding result [1] | Kd [2] [nM] | koff [2] [s⁻¹] | kon [2] [M⁻¹ s⁻¹] | binding result [3] | binding result [4] | binding result [5] | binding result [6] | binding result [7] | IC50 of neutralisation of HPV18 pseudovirus (PsV18) infection of 293FT cells, fluorescence by flow cytometry [8] [µg/mL] | binding result [9] | binding result [10] | binding result [11] | binding result [12] | binding result [13]
1 | monoclonal antibody 1B1 against HPV18 L1-VLP (antibody, V domains shown, IgG1; unconjugated in indirect ELISA and SPR; also called mAb 1B1; 1B1-HRP; source: mouse hybridoma (BALB/c spleen cells fused with SP2/0), ascites, purified on Protein G; copies: 2 + 2) VH: VQLQQSGGDLVKPGGSLKLSCAASGFTFSSYGMSWVRQTPDKRLEWVATISGGGSYTYYPDSVKGRFTISRDNAKNTLYLQMSSLKSEDTAMYYCSRHDSYGNYAAWFAYWGQGTTVTVS VL: DIQLTQSPALMAASPGEKVTITCSVSSSISSSNLHWYQQKSETSPKPWIYGTSNLASGVPVRFSGSGSGTSYSLTISSMEAEDAATYYCQQWSSYPFTFGSGTKLEI | no binding (tested: 0.3 μg/ml mAb) | 2.06 | 0.00192 | 931000 | no binding (tested: 0.3 μg/ml mAb) | no binding (tested: 0.3 μg/ml mAb) | no binding (tested: 0.3 μg/ml mAb) | no binding (tested: 0.3 μg/ml mAb) | no binding (tested: 0.3 μg/ml mAb) | 0.039 |  |  |  |  | 
2 | monoclonal antibody 4C2 against HPV18 L1-VLP (antibody, V domains shown, IgG1; Coating antibody of the sandwich ELISA kit; also called mAb 4C2; source: mouse hybridoma (BALB/c spleen cells fused with SP2/0), ascites, purified on Protein G; copies: 2 + 2) VH: VKLQESGAELMKPGASVKISCKATGYTFRSYWIEWVKQRPGHGLEWIGEILPGSGITNYNEKFKGKATFTADTSSNTAYMQLSSLTSEDSAVYYCARHWDGNAMDYWGQGTTVTVSS VL: DIQLTQSPLSLPVSLGDQASISCRSSQSIVHSNGNTYLEWYLQKPGQSPKLLIYKVSNRFSGVPDRFSGSGSGTDFTLKISRVEAEDLGVYYCFQGSHVPLTFGAGTKLEI | no binding (tested: 0.3 μg/ml mAb) | 7.45 | 0.0178 | 2.38e+06 |  |  |  |  |  | 10 | no binding (tested: 0.3 μg/ml mAb) | no binding (tested: 0.3 μg/ml mAb) | no binding (tested: 0.3 μg/ml mAb) | no binding (tested: 0.3 μg/ml mAb) | no binding (tested: 0.3 μg/ml mAb)
